Three molecules from article PMC4776307, “The Escherichia coli Cryptic Prophage Protein YfdR Binds to DnaA and Initiation of Chromosomal Replication Is Inhibited by Overexpression of the Gene Cluster yfdQ-yfdR-yfdS-yfdT” (Frontiers in Microbiology, 2016) can be followed below.

B1: DnaA (native, wild-type) (natural protein, Escherichia coli, UniProt P03004 1-467, looked up)
chain: MSLSLWQQCLARLQDELPATEFSMWIRPLQAELSDNTLALYAPNRFVLDWVRDKYLNNINGLLTSFCGADAPQLRFEVGTKPVTQTPQAAVTSNVAAPAQVAQTQPQRAAPSTRSGWDNVPAPAEPTYRSNVNVKHTFDNFVEGKSNQLARAAARQVADNPGGAYNPLFLYGGTGLGKTHLLHAVGNGIMARKPNAKVVYMHSERFVQDMVKALQNNAIEEFKRYYRSVDALLIDDIQFFANKERSQEEFFHTFNALLEGNQQIILTSDRYPKEINGVEDRLKSRFGWGLTVAIEPPELETRVAILMKKADENDIRLPGEVAFFIAKRLRSNVRELEGALNRVIANANFTGRAITIDFVREALRDLLALQEKLVTIDNIQKTVAEYYKIKVADLLSKRRSRSVARPRQMAMALAKELTNHSLPEIGDAFGGRDHTTVLHACRKIEQLREESHDIKEDFSNLIRTLSS
notes: DnaA, chromosomal replication initiator of Escherichia coli; called native, intact, wild-type DnaA; Untagged; In the bio-oriC pull-downs it stood as DnaA complexes (multimers) formed on a biotin-tagged oriC DNA fragment; also called native DnaA; wild-type DnaA (WT); source: purified
B2: DiaA (natural protein, Escherichia coli, UniProt P66817 1-196, looked up)
chain: MQERIKACFTESIQTQIAAAEALPDAISRAAMTLVQSLLNGNKILCCGNGTSAANAQHFAASMINRFETERPSLPAIALNTDNVVLTAIANDRLHDEVYAKQVRALGHAGDVLLAISTRGNSRDIVKAVEAAVTRDMTIVALTGYDGGELAGLLGPQDVEIRIPSHRSARIQEMHMLTVNCLCDLIDNTLFPHQDD
notes: results and legends say only DiaA; also called His-DiaA; purified DiaA; source: purified
B3: His-tagged YfdR (His-YfdR) (natural protein, Escherichia coli, UniProt P76514 1-178, looked up)
chain: MSFIKTFSGKHFYYDKINKDDIVINDIAVSLSNICRFAGHLSHFYSVAQHAVLCSQLVPQEFAFEALMHDATEAYCQDIPAPLKRLLPDYKRMEEKIDAVIREKYGLPPVMSTPVKYADLIMLATERRDLGLDDGSFWPVLEGIPATEMFNVIPLAPGHAYGMFMERFNDLSELRKCA
notes: YfdR of the cryptic prophage CPS-53 of Escherichia coli; amplified from pSSP with a forward primer that begins at the ATG of yfdR (nogu10) and nogu11, cloned NheI-EcoRI into pBAD/HisB; also called purified YfdR; source: E. coli MC1061 carrying pYfdR (pBAD/HisB), arabinose-induced, purified (Ni-NTA agarose)

Holding throughout (settings): both partners purified
Test [1] addresses T1, DnaB-DnaC complex (Escherichia coli, UniProt P0ACB0 1-471; P0AEF0 1-245).
T1 construct: DnaB replicative helicase of Escherichia coli (homohexamer); DnaC helicase loader of Escherichia coli; Formed beforehand from 7.5 pmol DnaB (as monomer) and 7.5 pmol DnaC; also called DnaB-DnaC complexes; source: DnaB and DnaC co-incubated on ice; copies: 6 +
The test can be described thus: pull-down; DnaA (7.5 pmol) and bio-oriC (100 fmol) with DnaB-DnaC complex (7.5 pmol each) 5 min on ice, then His-YfdR for 10 min; streptavidin beads; SDS-12% PAGE, silver staining.

Test [2] has as its target B1. The test can be described thus: pull-down; DnaA (7.5 pmol) and bio-oriC (100 fmol) with His-DiaA (10 pmol as monomer) 5 min on ice, then His-YfdR for 10 min; streptavidin beads; SDS-15% PAGE, silver staining.
In test [3] the target is T2, biotin-tagged DnaA (bio-DnaA) (Escherichia coli, UniProt P03004 1-467, biotin (biotin-tagged)).
T2 construct: DnaA, chromosomal replication initiator of Escherichia coli; also called bio-DnaA (Full); source: purified, as reported (Ishida et al., 2004)
T2 sequence (looked up): B1 chain
The test can be described thus: pull-down; bio-DnaA (5 pmol) first incubated with purified DiaA (10 pmol), then with protein extracts of cells carrying pQRST or pBAD18; streptavidin beads; SDS-PAGE, silver staining.

In test [4] the target is B1. The test can be described thus: pull-down; His-YfdR (10 pmol) with native DnaA or DnaA F46A in buffer R with 20 mM imidazole (20 uL; 2 mM ATP), on ice; Co2+ magnetic beads (Dynabeads); wash with 100 mM KCl and 50 mM imidazole; SDS-13% PAGE, silver staining; bead-bound DnaA subtracted.
Test [5] addresses T2, biotin-tagged DnaA (bio-DnaA). The test can be described thus: pull-down; DiaA (10 pmol as monomer) with bio-DnaA (5 pmol) 5 min on ice, then purified His-YfdR for 10 min; streptavidin beads; SDS-PAGE, silver staining.

T1 sequence (P0ACB0 whole entry, chain 1 of 2): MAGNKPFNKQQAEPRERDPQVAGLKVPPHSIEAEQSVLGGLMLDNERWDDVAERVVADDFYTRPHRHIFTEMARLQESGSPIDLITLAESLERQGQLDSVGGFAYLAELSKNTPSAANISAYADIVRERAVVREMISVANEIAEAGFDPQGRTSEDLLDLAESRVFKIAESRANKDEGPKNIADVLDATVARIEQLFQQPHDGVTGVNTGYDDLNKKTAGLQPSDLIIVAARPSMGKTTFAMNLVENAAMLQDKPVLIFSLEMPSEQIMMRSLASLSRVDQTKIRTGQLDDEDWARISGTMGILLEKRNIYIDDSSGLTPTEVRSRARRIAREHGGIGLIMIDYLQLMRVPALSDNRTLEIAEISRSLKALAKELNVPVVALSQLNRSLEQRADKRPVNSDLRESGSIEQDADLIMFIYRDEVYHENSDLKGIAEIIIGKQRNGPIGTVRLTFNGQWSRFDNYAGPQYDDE
T1 sequence (P0AEF0 whole entry, chain 2 of 2): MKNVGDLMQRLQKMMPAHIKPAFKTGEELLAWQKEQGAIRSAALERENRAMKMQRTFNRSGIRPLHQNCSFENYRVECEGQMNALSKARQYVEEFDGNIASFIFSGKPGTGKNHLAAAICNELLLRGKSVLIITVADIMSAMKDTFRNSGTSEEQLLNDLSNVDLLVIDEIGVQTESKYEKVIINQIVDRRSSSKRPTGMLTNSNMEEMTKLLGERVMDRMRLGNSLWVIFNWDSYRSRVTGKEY

As for B1, in test [1], the binding result is reported as “binds”.
In the case of B2, the binding result in test [2] and in test [3] was “binds” in each case.
On to B3, for which the binding result in test [4] and in test [5] was “binds” each time.
